B1: HDV Ribozyme (parent)
chain: GGCCGGCAUGGUCCCAGCCUCCUCGCUGGCGCCGGCUGGGCAACAUUCCGAGGGGACCGUCCCCUCGGUAAUGGCGAAUGGGACCCA

Variants of B1 are the subject of the data set. The data set is described as follows: self-cleavage, relative activity (ratio to wild type); higher = more cleavage; co-transcriptional.
Take GGCCGGCAUGGUCCCAGCCUCCUCGCUGGCGCGGGCUGGGCAACAUUCCGAGGGGACCGUCCCCUCGGUAAUGGCGAAUGGGUCCCA: the self-cleavage came out at 0.162.
On to GGCCGGCAUGGUCCCAGCCUCCUCGCUGGCGCGGGCUGGGCAACAUUCCGAGGGGACCGUCCCCUCGGUAAUGGCGAAUGGGGCCCA, for which the self-cleavage amounted to 0.0963.
Turning to GGCCGGCAUGGUCCCAGCCUCCUCGCUGGCGCGGGCUGGGCUACAUUCCGAGGGGACCGUCCCCUCGGUAAUGGCGAAUGGGACCCA, the self-cleavage is 0.0678.
Regarding GGCCGGCAUGGUCCCAGCCUCCUCGCUGGCGCGGGCUGGGCAACGUUCCGAGGGGACCGUCCCCUCGGUAAUGGCGAAUGGGACCCA, the self-cleavage amounted to 0.447.
As for GGCCGGCAUGGUCCCAGCCUCCUCGCUGGCGCAGGCUGGGCAACAUUCCGAGGGGACCGUCCCCUCGGUAAUGGCCAAUGGGACCCA, the self-cleavage came to 0.251.
The result for GGCCGGCAUGGUCCCAGCCUCCUCGCUGGCGCAGGCUGGGCAACAUUCCGAGGGGACCGUCCCCUCGGUAAUGGCUAAUGGGACCCA reads 0.326; that for GGCCGGCAUGGUCCCAGCCUCCUCGCUGGCGCGGGCUGGGCAACAUUCCGAGGGGACCGUCCCCUCGGUUAUGGCGAAUGGGACCCA, 0.383; that for GGCCGGCAUGGUCCCAGCCUCCUCGCUGGCGCGGGCUGGGCAACAUUCCGAGGGGACCGUCCCCUCGGUAAUGGCGAAUGGGACCCC, 0.0839.
Consider GGCCGGCAUGGUCCCAGCCUCCUCGCUGGCGCGGGCUGGGCAACAUUCCGAGGGGACCGUCCCCUCGGUAAUGGCGAAUGGGACCCG, for which the self-cleavage is 0.116.
For the variant GGCCGGCAUGGUCCCAGCCUCCUCGCUGGCGCGGGCUGGGCAACAUUCCGAGGGGACCGUCCCCUCGGUAAUGGCGAAUGGGACCCU, the self-cleavage was found to be 0.151.
Regarding GGCCGGCAUGGUCCCAGCCUCCUCGCUGGCGCAGGCUGGGCAACAUUCCGAGGGGACCGUCCCCUCGGUAAUGGCGAAUUGGACCCA, the self-cleavage came out at 0.136.
As for GGCCGGCAUGGUCCCAGCCUCCUCGCUGGCGCAGGCUGGGCAACAUUCCGAGGGGACCGUCCCCUCGGUAAUGGCGAAUCGGACCCA, the self-cleavage was determined as 0.16.
Regarding GGCCGGCAUGGUCCCAGCCUCCUCGCUGGCGCGGGCUGGGCAACAUUCCGGGGGGACCGUCCCCUCGGUAAUGGCGAAUGGGACCCA, the self-cleavage worked out at 0.111.
On to GGCCGGCAUGGUCCCAGCCUCCUCGCUGGCGCGGGCUGGGCAACAUUCCGAGGGGACCGUCCCCUCGGUACUGGCGAAUGGGACCCA, for which the self-cleavage stood at 0.104.
As to GGCCGGCAUGGUCCCAGCCUCCUCGCUGGCGCGGGCUGGGCAACAUUCCGAGGGGACCGUCCCCUCGGUAGUGGCGAAUGGGACCCA, the self-cleavage was 0.178.
Regarding GGCCGGCAUGGUCCCAGCCUCCUCGCUGGCGCAGGCUGGGCAACAUUCCGAGGGGACCGUCCCCGCGGUAAUGGCGAAUGGGACCCA, the self-cleavage was 0.244.
Consider GGCCGGCAUGGUCCCAGCCUCCUCGCUGGCGCAGGCUGGGCAACAUUCCGAGGGGACCGUCCCCCCGGUAAUGGCGAAUGGGACCCA, for which the self-cleavage amounted to 0.158.
The result for GGCCGGCAUGGUCCCAGCCUCCUCGCUGGCGCGGGCUGGGCAACAUUCCGAGGGGACCGUCCCCUCGGUAAUGGCGUAUGGGACCCA reads 0.106; that for GGCCGGCAUGGUCCCAGCCUCCUCGCUGGCGCAGGCUGGGCAACAUUCCGAGGGGACCGUCCCCUCGGUAAAGGCGAAUGGGACCCA, 0.208; that for GGCCGGCAUGGUCCCAGCCUCCUCGCUGGCGCAGGCUGGGCAACAUUCCGAGGGGACCGACCCCUCGGUAAUGGCGAAUGGGACCCA, 0.193.
GGCCGGCAUGGUCCCAGCCUCCUCGCUGGCGCAGGCUGGGCAACAAUCCGAGGGGACCGUCCCCUCGGUAAUGGCGAAUGGGACCCA: the self-cleavage came out at 0.128.
In the case of GGCCGGCAUGGUCCCAGCCUCCUCGCUGGCGCAGGCUGGGCAACACUCCGAGGGGACCGUCCCCUCGGUAAUGGCGAAUGGGACCCA, the self-cleavage stood at 0.0875.
GGCCGGCAUGGUCCCAGCCUCCUCGCUGGCGCAGGCUGGGCAACAUUCCGAGGGGACCGUCCCCUCGGGAAUGGCGAAUGGGACCCA: the self-cleavage stood at 0.287.
For GGCCGGCAUGGUCCCAGCCUCCUCGCUGGCGCAGGCUGGGCAACAUUCCGAGGGGACCGUCCCCUCGGCAAUGGCGAAUGGGACCCA, the self-cleavage was 0.342.
GGCCGGCAUGGUCCCAGCCUCCUCGCUGGCGCAGGCUGGGCAACAUGCCGAGGGGACCGUCCCCUCGGUAAUGGCGAAUGGGACCCA: the self-cleavage came out at 0.378.
Then GGCCGGCAUGGUCCCAGCCUCCUCGCUGGCGCAGGCUGGGCAACAUUCCGAGGGGACCGUCCCCUCGGUAAUGGCGAACGGGACCCA, with 0.0893.
As for GGCCGGCAUGGUCCCAGCCUCCUCGCUGGCGCGGGCUGGGCAACAUUCCGAGGGGACCGUCCCCUCGGUAAUGGCGAUUGGGACCCA, the self-cleavage amounted to 0.0875.
Regarding GGCCGGCAUGGUCCCAGCCUCCUCGCUGGCGCAGGCUGGGCAACAUUCCGAGGGGACCGUCCCCUCGGUAAUGGCGAAUGGCACCCA, the self-cleavage worked out at 0.17.
Then GGCCGGCAUGGUCCCAGCCUCCUCGCUGGCGCGGGCUGGGCAACAUUCCGAGGGGUCCGUCCCCUCGGUAAUGGCGAAUGGGACCCA, with 0.228.
Then GGCCGGCAUGGUCCCAGCCUCCUCGCUGGCGCGGGCUGGGCAACAUUCCGAGGGGGCCGUCCCCUCGGUAAUGGCGAAUGGGACCCA, with 0.222; and GGCCGGCAUGGUCCCAGCCUCCUCGCUGGCGCGGGCUGGGCAACAUUCCGAGGGGCCCGUCCCCUCGGUAAUGGCGAAUGGGACCCA, with 0.113.
Turning to GGCCGGCAUGGUCCCAGCCUCCUCGCUGGCGCGGGCUGGGCAACAUUCCGAGGGGACCGUCCCCUCGGUAAUGGCGAAUGGGACCCA, the self-cleavage was 0.173.
